Experimental data: patent publication US20250144205A1, “COMPOSITIONS AND METHODS FOR TREATING INFECTIOUS DISEASES” (priority 2022, published 2025)

B1: M9^FL: recombinant full length MEGF9 (multiple EGF-like-domains-9); full-length human MEGF9 is SEQ ID NO: 1 (protein, listed as Homo sapiens)
chain: MNGGAERAMRSLPSLGGLALLCCAAAAAAAAVASAASAGNVTGGGGAAGQVDASPGPGLRGEPSHPFPRATAPTAQAPRTGPPRATVHRPLAATSPAQSPETTPLWATAGPSSTTFQAPLGPSPTTPPAAERTSTTSQAPTRPAPTTLSTTTGPAPTTPVATTVPAPTTPRTPTPDLPSSSNSSVLPTPPATEAPSSPPPEYVCNCSVVGSLNVNRCNQTTGQCECRPGYQGLHCETCKEGFYLNYTSGLCQPCDCSPHGALSIPCNSSGKCQCKVGVIGSICDRCQDGYYGFSKNGCLPCQCNNRSASCDALTGACLNCQENSKGNHCEECKEGFYQSPDATKECLRCPCSAVTSTGSCSIKSSELEPECDQCKDGYIGPNCNKCENGYYNFDSICRKCQCHGHVDPVKTPKICKPESGECINCLHNTTGFWCENCLEGYVHDLEGNCIKKEVILPTPEGSTILVSNASLTTSVPTPVINSTFTPTTLQTIFSVSTSENSTSALADVSWTQFNIIILTVIIIVVVLLMGFVGAVYMYREYQNRKLNAPFWTIELKEDNISFSSYHDSIPNADVSGLLEDDGNEVAPNGQLTLTTPIHNYKA
B2: U5a^FL: Recombinant full-length U5a protein (uncoordinated receptor 5A); full-length human UNC5A is SEQ ID NO: 5 (protein, listed as Homo sapiens)
chain: MAVRPGLWPALLGIVLAAWLRGSGAQQSATVANPVPGANPDLLPHFLVEPEDVYIVKNKPVLLVCKAVPATQIFFKCNGEWVRQVDHVIERSTDGSSGLPTMEVRINVSRQQVEKVFGLEEYWCQCVAWSSSGTTKSQKAYIRIAYLRKNFEQEPLAKEVSLEQGIVLPCRPPEGIPPAEVEWLRNEDLVDPSLDPNVYITREHSLVVRQARLADTANYTCVAKNIVARRRSASAAVIVYVDGSWSPWSKWSACGLDCTHWRSRECSDPAPRNGGEECQGTDLDTRNCTSDLCVHTASGPEDVALYVGLIAVAVCLVLLLLVLILVYCRKKEGLDSDVADSSILTSGFQPVSIKPSKADNPHLLTIQPDLSTTTTTYQGSLCPRQDGPSPKFQLTNGHLLSPLGGGRHTLHHSSPTSEAEEFVSRLSTQNYFRSLPRGTSNMTYGTFNFLGGRLMIPNTGISLLIPPDAIPRGKIYEIYLTLHKPEDVRLPLAGCQTLLSPIVSCGPPGVLLTRPVILAMDHCGEPSPDSWSLRLKKQSCEGSWEDVLHLGEEAPSHLYYCQLEASACYVFTEQLGRFALVGEALSVAAAKRLKLLLFAPVACTSLEYNIRVYCLHDTHDALKEVVQLEKQLGGQLIQEPRVLHFKDSYHNLRLSIHDVPSSLWKSKLLVSYQEIPFYHIWNGTQRYLHCTFTLERVSPSTSDLACKLWVWQVEGDGQSFSINFNITKDTRFAELLALESEAGVPALVGPSAFKIPFLIRQKIISSLDPPCRRGADWRTLAQKLHLDSHLSFFASKPSPTAMILNLWEARHFPNGNLSQLAAAVAGLGQPDAGLFTVSEAEC
B3: U5a^mAb: U5a^ECD-specific monoclonal antibody, the 17C9 1 anti-U5a antibody comprising the sequences of SEQ ID NOs. 204 and 211 (antibody)
heavy: QVQLQQPGAELVKPGASVKMSCKASGYTFTSYWITWVKQRPGQGLEWIGDIYPGSGSTTYNEKFKSKATLTVDTSSSTAYMQLSSLTSEDSAVYYCARRHYGSSSAWFAYWGQGTLVTVSAAKTTPPSVYPLAPGSAAQTNSMVTLGCLVKGYFPEPVTVTWNSGSLSSGVHTFPAVLQSDLYTLSSSVTVPSSTWPSQTVTCNVAHPASSTKVDKKIVPRDCGCKPCICTVPEVSSVFIFPPKPKDVLTITLTPKVTCVVVDISKDDPEVQFSWFVDDVEVHTAQTKPREEQINSTFRSVSELPIMHQDWLNGKEFKCRVNSAAFPAPIEKTISKTKGRPKAPQVYTIPPPKEQMAKDKVSLTCMITNFFPEDITVEWQWNGQPAENYKNTQPIMDTDGSYFVYSKLNVQKSNWEAGNTFTCSVLHEGLHNHHTEKSLSHSPGK
light: DIQMTQTTSSLSASLGDRVTISCSASQGIRNYLNWYQQKPDGTVKLLIYYTSSLHSGVPSRFSGSGSGTDYSLTISNLEPEDIATYYCQQYSKLPFTFGSGTKLEIKRADAAPTVSIFPPSSEQLTSGGASVVCFLNNFYPKDINVKWKIDGSERQNGVLNSWTDQDSKDSTYSMSSTLTLTKDEYERHNSYTCEATHKTSTSPIVKSFNRNEC
B4: M^9ECD: extracellular domain (ECD) fragment of recombinant M9 (MEGF9); ECD of MEGF9 given as SEQ ID NO: 102 (protein, listed as Homo sapiens)
chain: MGWSCIILFLVATATGVHSAAVASAASAGNVTGGGGAAGQVDASPGPGLRGEPSHPFPRATAPTAQAPRTGPPRATVHRPLAATSPAQSPETTPLWATAGPSSTTFQAPLGPSPTTPPAAERTSTTSQAPTRPAPTTLSTTTGPAPTTPVATTVPAPTTPRTPTPDLPSSSNSSVLPTPPATEAPSSPPPGHQWPVAKMPQKYLGKYACESNLKSKYLPLTQPVMNLRVSEAVKTEYVCNCSVVGSLNVNRCNQTTGQCECRPGYQGLHCETCKEGFYLNYTSGLCQPCDCSPHGALSIPCNSSGKCQCKVGVIGSICDRCQDGYYGFSKNGCLPCQCNNRSASCDALTGACLNCQENSKGNHCEECKEGFYQSPDATKECLRCPCSAVTSTGSCSIKSSELEPECDQCKDGYIGPNCNKCENGYYNFDSICRKCQCHGHVDPVKTPKICKPESGECINCLHNTTGFWCENCLEGYVHDLEGNCIKKEVILPTPEGSTILVSNASLTTSVPTPVINSTFTPTTLQTIFSVSTSENSTSALADVSWTQFN

Assays:
rSARS-CoV-2/mCherry-Nluc = format: in vivo, K18 hACE2 transgenic mice; settings: for virus titration in lungs (viral titers by plaque assay): 2.5 mg/kg i.p. once daily, compared to the mock groups, FIG. 8A; for body weight and survival: mouse, in vivo
[1] = system: TSE-induced lung injury (TSE-LI); assay: chronic tobacco smoke exposure induced lung injury (TSE-LI) in wild-type mice; format: in vivo; settings: for MUC5AC (M5Ac) expression (lung mRNA by qPCR, IHC) / FOXA2 mRNA (qPCR) / surfactant protein-C (SP-C) mRNA (qPCR): WT mice with TSE-LI, 2.5 mg/kg IP 5 days a week for 4 weeks; for MUC5AC (M5Ac) expression (lung mRNA by qPCR, IHC): FIG. 12A, 12D; for FOXA2 mRNA (qPCR): FIG. 12B; for surfactant protein-C (SP-C) mRNA (qPCR): FIG. 12C; for chronic TS exposure (TSE) induced lung injury (TSE-LI): WT mice, 2.5 mg/kg IP 5 days a week for 4 weeks after 16 weeks TSE
Protocol: Recombinant full-length U5a protein (U5a^FL), extracellular domain of U5a^FL (U5a^ECD) and U5a^ECD-specific monoclonal antibody (U5a^mAb, the 17C9 1 anti-U5a antibody comprising the sequences of SEQ ID NOs. 204 and 211) mitigated chronic TS exposure (TSE) induced lung injury (TSE-LI) in wild-type (WT) mice. WT mice were kept in ambient AIR or exposed to tobacco smoke (TSE) for 4 h/day 5 days a week. After 16 weeks, WT mice with TSE-LI were left untreated (None) or treated with 2.5 mg/kg of U5a^FL, U5a^ECD and U5amAb 5 days a week for 4 weeks by IP injection. Total lung RNA were analyzed for MUC5AC (M5Ac) (FIG. 12A), FOXA2 (FIG. 12B) and surfactant protein-C(SP-C) (FIG. 12C) mRNA by qPCR. Lung sections of mice treated as in FIG. 12A were subjected to IHC analysis for M5Ac (FIG. 12D). We found increased expression of U5a in AECs and ATII cells in lungs of patients with COPD and mice with TSE-LI. […] In addition, increased surfactant protein-C(SP-C) indicates improved survival of ATII cells, which is otherwise reduced due to increased TSE-induced senescence and apoptosis of ATII cells seen in mice with TSE-LI left untreated.

Row | Molecule | virus titration in lungs (viral titers by plaque assay) (rSARS-CoV-2/mCherry-Nluc) | body weight and survival (rSARS-CoV-2/mCherry-Nluc) | MUC5AC (M5Ac) expression (lung mRNA by qPCR, IHC) [1] | FOXA2 mRNA (qPCR) [1] | surfactant protein-C (SP-C) mRNA (qPCR) [1] | chronic TS exposure (TSE) induced lung injury (TSE-LI) [1]
1 | B1 | clear trend of decreased viral titers | remarkable improvement | – | – | – | –
2 | B2 | – | – | significantly inhibits | inducing | increased | mitigated
3 | B3 | – | – | significantly inhibits | inducing | increased | mitigated
4 | B4 | clear trend of decreased viral titers | remarkable improvement | – | – | – | –
